Measured values published in US20250152742A1, “COMPOSITIONS AND METHODS FOR NEUROLOGICAL DISEASES” (Trames Bio, Inc., priority 2022, published 2025).

System: engineered chimeric receptor SEQ ID NO: 33 and its mutants (human α7-nAChR ligand binding domain / human GlyRα1 ion pore domain) in Lenti-X 293T cells
Assay: YFP fluorescence quenching anion reporter plate reader assay (percent quench, EC50)
Assay type: cell-based
Settings: for YFP fluorescence quenching using CNL001 (percent quench): receptor named in row; for YFP fluorescence quenching using Varenicline, 3 nM var: ligand Varenicline 3 nM; for YFP fluorescence quenching using Varenicline, 30 nM var: ligand Varenicline 30 nM; for YFP fluorescence quenching using Varenicline, 300 nM var: ligand Varenicline 300 nM; for YFP fluorescence quenching using Varenicline, 500 nM var: ligand Varenicline 500 nM; for YFP fluorescence quenching using Varenicline, 1 uM var: ligand Varenicline 1 uM
Excerpt: To screen these mutant LGICs for those having novel response profiles to ligands, an anion reporter assay was developed to assess the function of the LGICs in a high throughput format. In this assay, cells expressing a YFP reporter whose fluorescence is quenched in the presence of anion are transfected with DNA encoding the channel of interest. Upon exposure to ligand, channels that are activated will flux anion, resulting in a dose-dependent quench of the YFP that can be detected on a plate reader. The greater the quench signal (i.e., the more positive the value), the higher the ligand activity on the receptor is.
Lenti-X 293T cells (LX293T, Clontech) were maintained in DMEM containing 10% FBS and 1% penicillin/streptomycin (Invitrogen). […] Two days before assay, cells were split at a density of 20,000 cells/well in a 96-well tissue culture plate coated with poly-d lysine (Thermo Scientific). The next day, the cells were transiently transfected with 0.1 μg of DNA per well using standard Fugene protocol (Promega). On the day of assay, cells were washed 2 times in 1X extracellular solution (1X ECS: 140 mM NaCl, 5 mM KCl, 1 mM MgCl2, 2 mM CaCl2, 10 mM HEPES, 10 mM glucose, pH 7.2, mOsms 300). After the last wash, 100 μL of 1X ECS was added to the wells and the plate was incubated at 37° C. for 30 min. While incubating the plate, the drugs were diluted to a 2X concentration in 1X ECS-Nal (same components as 1X ECS except the 140 mM NaCl was replaced by 140 mM Nal). The plates were then read on a Flexstation3 (Molecular Devices). Each well, 8 wells at a time, of the plate is read for 2 min using a Flexstation3 (Molecular Devices) as follows: 1) a baseline YFP fluorescence is read for 17 sec, 2) 100 μL of ligand is added, and 3) the changes in YFP fluorescence are then measured every 1.3 sec for 1 minute and 43 seconds. The percent quench is calculated from the average fluorescence of the last 10 seconds of the read divided by the baseline average of the first 15 seconds prior to the ligand addition.
FIGS. 1A-1J provide heat maps of the percent quench of YFP fluorescence following stimulation by various doses of either acetylcholine or the non-native ligand as indicated in the Figures. CODA71 (SEQ ID NO: 33) was used as a control, and CODA75 (SEQ ID NO: 29, a non-responding chimeric engineered receptor) was used as the negative control. Quenching of the fluorescence signal, as indicated by blue shaded cells, indicate the level of engineered receptor activation by the non-native ligand at that concentration.

B1: CODA330: engineered receptor: L131F in SEQ ID NO: 33 (protein)
chain: MRCSPGGVWLALAASLLHVSLQGEFQRKLYKELVKNYNPLERPVANDSQPLTVYFSLSLLQIMDVDEKNQVLTTNIWLQMSWTDHYLQWNVSEYPGVKTVRFPDGQIWKPDILLYNSADERFDATFHTNVFVNSSGHCQYLPPGIFKSSCPMDLKNFPMDVQTCKLKFGSWSYGGWSLDLQMQEADISGYIPNGEWDLVGIPGKRSERFYECCKEPYPDVTFTVTMRRRMGYYLIQMYIPSLLIVILSWISFWINMDAAPARVGLGITTVLTMTTQSSGSRASLPKVSYVKAIDIWMAVCLLFVFSALLEYAAVNFVSRQHKELLRFRRKRRHHKSPMLNLFQEDEAGEGRFNFSAYGMGPACLQAKDGISVKGANNSNTTNPPPAPSKSPEEMRKLFIQRAKKIDKISRIGFPMAFLIFNMFYWIIYKIVRREDVHNQ
modifications: synthetic sequence of chimeric LGIC
B1 was tested, and the “YFP fluorescence quenching using CNL001 (percent quench)” value (1 nM CNL001, first column so headed) was 76.289%, the “YFP fluorescence quenching using CNL001 (percent quench)” value (1 nM CNL001, second column so headed) was 78.896% and the “YFP fluorescence quenching using TC-5619/Bradanicline (percent quench)” value (1 nM brd (TC-5619/Bradanicline)) was −12.4%. For the same molecule, the “YFP fluorescence quenching using TC-5619/Bradanicline (percent quench)” value (3 nM brd (TC-5619/Bradanicline)) was 25.12%, the “YFP fluorescence quenching using CNL001 (percent quench)” value (10 nM CNL001, first column so headed) was 79.339% and the “YFP fluorescence quenching using CNL001 (percent quench)” value (10 nM CNL001, second column so headed) was 80.245%. For the same molecule, the “YFP fluorescence quenching using TC-5619/Bradanicline (percent quench)” value (10 nM brd (TC-5619/Bradanicline)) was 72.19%, the “YFP fluorescence quenching using TC-6683 (percent quench)” value (30 nM TC-6683) was −22.26% and the “YFP fluorescence quenching using TC-5619/Bradanicline (percent quench)” value (30 nM brd (TC-5619/Bradanicline)) was 76.35%. For the same molecule, the “YFP fluorescence quenching using CNL001 (percent quench)” value (50 nM CNL001, first column so headed) was 80.831%, the “YFP fluorescence quenching using CNL001 (percent quench)” value (50 nM CNL001, second column so headed) was 80.605% and the “YFP fluorescence quenching using ABT-126 (percent quench)” value (50 nM abt (ABT-126)) was −16.22%. For the same molecule, the “YFP fluorescence quenching using CNL001 (percent quench)” value (100 nM CNL001, first column so headed) was 81%, the “YFP fluorescence quenching using CNL001 (percent quench)” value (100 nM CNL001, second column so headed) was 80.663% and the “YFP fluorescence quenching (percent quench)” value (100 nM CNL002) was −3.76%. For the same molecule, the “YFP fluorescence quenching using ABT-126 (percent quench)” value (100 nM abt (ABT-126)) was −11.89%, the “YFP fluorescence quenching using AZD-0328 (percent quench)” value (100 nM azd0328) was 27.56% and the “YFP fluorescence quenching using TC-5619/Bradanicline (percent quench)” value (100 nM brd (TC-5619/Bradanicline)) was 78.94%. The “YFP fluorescence quenching using TC-6683 (percent quench)” value (300 nM TC-6683) was −18.89%, the “YFP fluorescence quenching using ABT-126 (percent quench)” value (300 nM abt (ABT-126)) was 39.23% and the “YFP fluorescence quenching using AZD-0328 (percent quench)” value (300 nM azd0328) was 73.35%. The “YFP fluorescence quenching using TC-5619/Bradanicline (percent quench)” value (300 nM brd (TC-5619/Bradanicline)) was 77.06%, the “YFP fluorescence quenching using CNL001 (percent quench)” value (1 uM CNL001, first column so headed) was 81.293% and the “YFP fluorescence quenching using CNL001 (percent quench)” value (1 uM CNL001, second column so headed) was 81.428%. The “YFP fluorescence quenching (percent quench)” value (1 uM CNL002) was 68.51%, the “YFP fluorescence quenching using ABT-126 (percent quench)” value (1 uM abt (ABT-126)) was 66.5% and the “YFP fluorescence quenching using TC-5619/Bradanicline (percent quench)” value (1 uM brd (TC-5619/Bradanicline)) was 78.61%. For the same molecule, the “YFP fluorescence quenching using TC-6683 (percent quench)” value (3 uM TC-6683) was −9.45%, the “YFP fluorescence quenching (percent quench)” value (10 uM ach (acetylcholine)) was 11.07% and the “YFP fluorescence quenching (percent quench)” value (30 uM CNL002) was 77.77%. The “YFP fluorescence quenching using TC-6683 (percent quench)” value (30 uM TC-6683) was −9.23%, the “YFP fluorescence quenching using AZD-0328 (percent quench)” value (30 uM azd0328) was 77.14% and the “YFP fluorescence quenching using TC-6683 (percent quench)” value (100 uM TC-6683) was −10.75%. The “YFP fluorescence quenching (percent quench)” value (100 uM ach (acetylcholine)) was 43.34%, the “YFP fluorescence quenching (percent quench)” value (1 mM ach (acetylcholine)) was 77.52% and the “YFP fluorescence quenching (percent quench)” value (3 mM ach (acetylcholine)) was 74.89%. The “YFP fluorescence quenching using Facinicline, 30 nM fac” value (ligand Facinicline 30 nM) was 2.9, the “YFP fluorescence quenching using Facinicline, 300 nM fac” value (ligand Facinicline 300 nM) was 74.96 and the “YFP fluorescence quenching using Facinicline, 10 uM fac” value (ligand Facinicline 10 uM) was 81.97. The “YFP fluorescence quenching using Facinicline, 30 uM fac” value (ligand Facinicline 30 uM) was 78.31, the “YFP fluorescence quenching using TC-6987, 1 uM tc6987” value (ligand TC-6987 1 uM) was 53.37 and the “YFP fluorescence quenching using TC-6987, 10 uM tc6987” value (ligand TC-6987 10 uM) was 74.23. For the same molecule, the “YFP fluorescence quenching using TC-6987, 500 uM tc6987” value (ligand TC-6987 500 uM) was 72.25, the “YFP fluorescence quenching using Varenicline, 3 nM var” value (first column) was −3.016 and the “YFP fluorescence quenching using Varenicline, 3 nM var” value (second column) was −1.452. For the same molecule, the “YFP fluorescence quenching using Varenicline, 30 nM var” value (first column) was −0.193, the “YFP fluorescence quenching using Varenicline, 30 nM var” value (second column) was −1.853 and the “YFP fluorescence quenching using Varenicline, 300 nM var” value (first column) was 6.915. For the same molecule, the “YFP fluorescence quenching using Varenicline, 300 nM var” value (second column) was 6.513, the “YFP fluorescence quenching using Varenicline, 500 nM var” value (first column) was 27.593 and the “YFP fluorescence quenching using Varenicline, 500 nM var” value (second column) was 29.863. The “YFP fluorescence quenching using Varenicline, 1 uM var” value (first column) was 67.499 and the “YFP fluorescence quenching using Varenicline, 1 uM var” value (second column) was 65.57.
